Here are results for 4 molecules from patent publication US20200325476 (published 2020).

The target in data set [1] is T1, alpha-synuclein (monomer) (UniProt P37840 P37840:1-140). Kind of data set: MST; 1x PBS, 0.05% Tween-20, 25 C; 50 nM aptamer.
The target in data set [2] is T1, alpha-synuclein (monomer). Kind of data set: footprint; DNase I; positive control; apparent Kd estimated from three bands but value not given in text; DPBS, 37 C.
The target of data set [3] is T1, alpha-synuclein (monomer). Put plainly: footprint; DNase I; apparent Kd estimated from three bands but value not given in text; DPBS, 37 C.

B1: a-syn-2 (1LBiGJFJC) (ssDNA)
DNA: ATAGTCCCATCATTCATTGTATGGTACGGCGCGGTGGCGGGTGCGGGGAGATATTAGCAAGTGTCA
B1 gave a Kd in data set [1] of 286 nM.

B2: M5-15 (ssDNA)
DNA: ATAGTCCCATCATTCATTGTATGGTACGGCGCGGTGGCGGGTGCGTGGAGATATTAGCAAGTGTCA
As for B2, the binding result in data set [2] is on record as “binds”.

B3: a-syn-1 (1LBwAAjJ) (ssDNA)
DNA: ATAGTCCCATCATTCATTGTAAGGAAACGCTACGGGGTGGGTACGGCAAGATATTAGCAAGTGTCA
Consider B3, for which, in data set [3], the binding result was “binds”.

B4: a-syn-3 (GdJUhe) (ssDNA)
DNA: ATAGTCCCATCATTCATTGTATGAGATGGGGTGGTGACGTCAGCATGGAGATATTAGCAAGTGTCA
B4 showed a dissociation constant Kd in data set [1] of 94.2 nM.
